According to the supplement of paper PMC9170038:

Test system: K4 kissing-loop RNA reporter
Test: apparent KD of K4 kissing-loop reporter; higher = weaker reporter binding
Details: Eterna round: R107
Experimental: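 RNA-MaP round R107: designed RNA switches with theophylline, tryptophan, arginine or FMN aptamers are transcribed on-chip within common flanks. They are titrated with a labelled K4 kissing-loop RNA reporter in RNA-MaP buffer (100 mM Tris pH 7.5, 80 mM KCl, 4 mM MgCl2), without ligand or with the indicated ligand. Median apparent KD per design.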

[1] = input ligand: theophylline 20 uM
[2] = input ligand: tryptophan 2.4 mM
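Further: bound reporter read as fluorescence of individual clusters on recovered sequencing chips by microscopy, with normalized cluster intensities fitted with a binding model.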

Sequence | apparent KD of K4 kissing-loop reporter (input ligand: FMN 200 uM) | apparent KD of K4 kissing-loop reporter (input ligand: arginine 13.2 mM) | apparent KD of K4 kissing-loop reporter (input ligand: none) | apparent KD of K4 kissing-loop reporter [1] | apparent KD of K4 kissing-loop reporter [2]
AAGGGCUAGGCGGCCGCCACUGGUCGUGUACACAUACAGACCAGUGAUGUUGGUAUUGUAUGCGACAGGACCGGGCCUAGCCCAA [Exclusion - Tryptophan B (Freestyle 29)] | 267 nM | 230 nM | 263 nM | 247 nM | 445 nM
CCACCUCCAGAAGGAUAUAGUGUAUCAGAUUCACUCGAGUGCCUUAAACUAAGGAGUGAUGUUCCGCUAGAAGGUCUCGUAGGCA [theeternabot_exclusion_KL_FMN_B_45] | 191 nM | 145 nM | 149 nM | 138 nM | 133 nM
AGACUACUGAUAGGAUAUAACAUCCUAGUCGUAUACCGAAAGGUAUACGAUUUCCUUCUAGUGAUGUUAGAAGGGUCGGUAGUCA [Omei KL FMN B Exc B v11] | 106 nM | 82.4 nM | 89.1 nM | 81.1 nM | 89.1 nM
AAAUAAUAAAUGCAGCCAGUGAUGUUGGAAGGAGCGUGCGAAAGCACAGGUAGGUCGCCAACCAAAGCUGGAAACAGCAACUGCA [#SwitchBubble 3 #K4Early] | 226 nM | 129 nM | 84.5 nM | 129 nM | 99.1 nM
UACACGACUCGUGUAAACCGAGGUAACAGGCAGGAUAUGUAACGGAACAGAAGGGCCAUGUUGCGUGUCCAGUGAUGUUGGAUGC [Vetedile] | 170 nM | 231 nM | 270 nM | 272 nM | 246 nM
AUUAUAUAGGCGGCCGCCACUAGUGAUGUUAGUGACUAUAUGAAAACAUAUAGAAUAAAAUAAUAUAGGACCGGGCCAUAAUAUU [AstrosExTryB#4] | 498 nM | 392 nM | 423 nM | 425 nM | 471 nM
UCAUGUGCCAGUGAUGUUGGCGUACGUGAUACCAGACGAAUAAAAGUCCCUUGGCAGCACAAAUAAGCCAAGAUAGAUGAAUGAU [Exclusion Theophylline A GF 1] | 130 nM | 125 nM | 132 nM | 137 nM | 116 nM
AAUAUAGUGAUGUUAUAUAAGAAGGAGUUACGAGGACCGGUACGGCCGCCACUCGAAACGAGUGAGGGCUUGGGAGAUUGGGCCC [SSTryptA.I] | 404 nM | 346 nM | 444 nM | 377 nM | 264 nM
CGAGCGGAGUGAUGUUCCGUGCCAGCAGAUACCAGAUUGAAAGAGAUCCCUUGGCAGCUGCGUCACACCCUUACGUGAUAGGACC [theeternabot_sameState_KL_Theo_A_32] | 244 nM | 178 nM | 239 nM | 275 nM | 165 nM
AAAUAGAUCAGUCACCCAGUGAUGUUGGAAGGAGCGUGCGAAAGCACAGGUAGGUCGCCAAAACCUAAGUGGCUGAUCAAAAUAA [#SwitchBubble 4 #K4Early] | 838 nM | 445 nM | 819 nM | 523 nM | 587 nM
ACAGAUUGAUUGAUUCACUUUGUAGCUGCGAAGGAUAUUAAGACGCUAAGAAGGUCGCUUAAGGGUAGUGAUGUUACCUUUUGAG [theeternabot_sameState_KL_FMN_A_27] | 57.3 nM | 55 nM | 57.8 nM | 56.6 nM | 51.4 nM
AUUCGUCUCUGAGGAUAUCAGAGGAGAGUGAUGUUCUCCCAUAGCCCAGUGAUGUUGGAUGCUAUCUGAGAAGGCAGUGGGCGAA [Same State FMN B GF 14] | 142 nM | 203 nM | 213 nM | 226 nM | 186 nM
GGCACUUUUGGUAGGAACCAUCUACCUCUAUAGGAUAUGCCGAAAGGCAGAAGGAUAGACCUACAGAGUGAUGUUCUGCGUGCCU | 573 nM | 150 nM | 330 nM | 203 nM | 211 nM
GUAUCGCUAGGAGGAUAUUCCAUUUUACAUAGAAAUGGCUAUGCGGAGUGAUGUUCCGAUUUACGGGAAGAAGGCCUAGUGAUAC [FMN B 21] | 137 nM | 119 nM | 131 nM | 115 nM | 121 nM
GGAUAGGAGAGAGGAUAUGGGCUAGGCAAGAAUAACUUGUCUAGCAAAUCCAUGAGGAGUGAUGUUCCAGAAGGCUCUCCUAUCG [FmnBX 1 G9+C77] | 996 nM | 148 nM | 153 nM | 143 nM | 139 nM
GGUAUGGAAGCAACAUCACAAGCCGUACCACGAGGACCGGUACGGCCGCCACUCGAUAACUUGCAGUGAUGUUGCAAGUAAGAAU [(T)''-(K)'-(T)'-(T1)-(T2)-(K1)-(K2)_Design6] | 147 nM | 80.5 nM | 133 nM | 117 nM | 68.6 nM
UUCAUCGUGGUUCACGGGUGGUAUGAAACGCGAGGACCGGUACGGCCGCCACUCGGUUCCGCUUGUUGAGUGAUGUUCAAUAUUU | 239 nM | 333 nM | 290 nM | 323 nM | 257 nM
AGACCACAAAGUGGUCAGUGUUCGCUGCCGCGAGGACCGGUACGGCCGCCACUCGCGAGUGAUGUUCGCGAGGGCAGCGAACACA [Omei KL Tryp A Exc A v4] | 99.7 nM | 87.8 nM | 87.9 nM | 86.8 nM | 106 nM
CACUUACGUAGUGAUGUUACGAUCUCUGAUACCAGACAACUCUAAGUCCCUUGGCAGCAGUCAUUUUGCUUCAAAUUUACUCAAA [JR_ExcTheophyA_Sub013] | 691 nM | 577 nM | 706 nM | 661 nM | 520 nM
ACCAUCAAAGAUGGCCAGGACUCAACUGAUACCAGAGUGGAAACACUCCCUUGGCAGCAGGUGAGUGAUGUUCACGAGUCCUGGA [Omel KL Theo A SS B v8] | 942 nM | 786 nM | 982 nM | 522 nM | 787 nM
UCUAAGGUCGAACCGGUAUGAUCACCGGAUACCAGAGGCGAAAGCCUCCCUUGGCAGCCGAGUGUAGUGAUGUUACACGGGUUCU | 166 nM | 147 nM | 175 nM | 310 nM | 166 nM
GGACCACCAGUGAUGUUGGAGAUAAACUCCAAGGAUAUGACGAAAGUCAGAAGGUGGUAAUAAGACGUCAAAGACGUCAGGUCCA [FmnA 20 #SwitchBubble #K4Early] | 372 nM | 116 nM | 187 nM | 209 nM | 178 nM

Sequence | apparent KD of K4 kissing-loop reporter (input ligand: FMN 200 uM) | apparent KD of K4 kissing-loop reporter (input ligand: arginine 13.2 mM) | apparent KD of K4 kissing-loop reporter (input ligand: none) | apparent KD of K4 kissing-loop reporter [1] | apparent KD of K4 kissing-loop reporter [2]
UGAUAGGACAGAAGGAGCGGGAGUGAUGUUCCCAAUAAAAGGUCUAGCAAAGCUAGACCCUCCCAGGUAGGUCGCUGUCCUAUCU [ArgBX 2 #Palindromic #SwitchBubble #StaticStem] | 234 nM | 265 nM | 268 nM | 245 nM | 219 nM
UGAUAAAGCAGUGAUGUUGCAAGUAAUGAUACCAGUUAAGAAGAGAACCCUUGGCAGCAUAAAGUGCGCUCUAAUGAGUGUGCUU [whbob_SS_Theo_A_w51] | 82.9 nM | 138 nM | 103 nM | 169 nM | 91.3 nM
GCAGUGAUGUUGCGCGAGUACGGUAGAGUACGAGGACCGGUACGGCCGCCACUCGUACGGAACUGGCUAAUUUAUGGAAUGGUGA [III] | 254 nM | 227 nM | 295 nM | 270 nM | 193 nM
CGAGUGAUGUUCGUUUUUUACUCUUUUUGACAGGAUAUGCGGAAACGCAGAAGGGUCACCUUUGAGUUAAAAGGAGUUAUUUUUU [Ex FMN A 19] | 345 nM | 269 nM | 318 nM | 305 nM | 317 nM
AAUACGAAGCAGUGAUGUUGCUUAUGAGAAGGAGCGCACGAAAGUGCAGGUAGGUCGCUCAGCCAUGUGGACGAAAACGUCCACA [whbob_SS_Arginine_A_sa109] | 83.3 nM | 102 nM | 89.2 nM | 102 nM | 80.5 nM
UGACUGGACUGAAGGAGCGCGAAAACUCCUAGUGAUGUUAGGAAAACGAGACAAAGUCUCGCGCAGGUAGGUCGCAGUCUAGUCU [ArgBS 20 #SwitchBubble #StaticStem] | 131 nM | 102 nM | 121 nM | 129 nM | 113 nM
CGGAUGUAGUGAUGUUAUAUUAGAUGUAGACGAGGACCGGUACGGCCGCCACUCGUAACGGCUGCUAGCGCGUUGCGAGGUGUGC [ExTryptoA.Cl] | 642 nM | 611 nM | 721 nM | 570 nM | 510 nM
UCGCAAAAGUCGGCCGCCACUCCGGGCCCUAUAAAUGGGCGCAGUGAUGUUGCGGCUAGGCCUCUGAGGACCGGGACUUUGUAGC [Tixelequ] | 221 nM | 119 nM | 58.9 nM | 142 nM | 156 nM
UGACUGGACUGAAGGAGCGCUUAACUCCUAGUGAUGUUAGGAUAACGAGACAAAGUCUCGAAGCAGGUAGGUCGCAGUCUAGUCU | 157 nM | 104 nM | 118 nM | 126 nM | 128 nM
AACCACUCGUUACAUCACUAUCGAGUGGAACGAGGACCGGUACGGCCGCCACUCGAAUAGAUGCAGUGAUGUUGCAUCUUGGAAU [KL-SSTryp-A (BrourdMod)4 #dotplot2 strengthened] | 181 nM | 141 nM | 163 nM | 156 nM | 132 nM
AGCCUUACAUCGGCCGCCACUUCCCUGGCAGUGAUGUUGCCGUAGACAAUCAUUCUACCCUGGAGAAGGACCGGGAUGCAGAAAC [theeternabot_sameState_KL_Trp_B_8] | 154 nM | 185 nM | 167 nM | 223 nM | 329 nM
AAUUUGUAUUUAUUCUUUAAAUGUUCAGAAGGAGCGUGAAUUAUCACAGGUAGGUCGCUGAGCUAGUGAUGUUAGCUAUACACUA [#01 K4 Arginine A Exclusion] | 98.5 nM | 201 nM | 127 nM | 181 nM | 91 nM
AGUGUUGUAUGACGGUUUGUCACUUAGGAUCAGGAUAUAUAAACAAAUAGAAGGGAUGGCGGAGUGAUGUUCCGCCGGCCGCCAU [FMN A Exl V9] | 110 nM | 101 nM | 104 nM | 106 nM | 94.3 nM
UAUUUAGUGACGGCCGCCACUAUGGUGAUUUAUUUGUUUGAGUGAUGUUUUGAUGUUUGAUUUUGUAGGACCGGGUUAUGUGUUG [yyycmullin] | 891 nM | 688 nM | 818 nM | 752 nM | 595 nM
AACUGUCAAGGACAACAUUACUGAGGUGAUACCAGCAUCGAAAGAUGCCCUUGGCAGCGCCAACUUGCAGUGAUGUUGCAAGUAA [BrourdMod 1 - Jieux - Exclusion - Theophylline A] | 169 nM | 141 nM | 157 nM | 159 nM | 164 nM
AAUAACUUGCAGUGAUGUUGCAAGAAAGCUCAGGAUAUCAGGAAACUGAGAAGGGAGCAUCCUGAGCAAACAUCACAACUUAGGA [[K1]-[K2]-[F1]-[F2]-[F]'-[K]'-[F]''_Design2] | 368 nM | 295 nM | 406 nM | 448 nM | 361 nM
UGGAGUUGACGAAAAGUCAACUCCUGGGAAGGAGCGGACGAAAGUCCAGGUAGGUCGCCCACUACCAGUGAUGUUGGUACUCAAA | 178 nM | 196 nM | 170 nM | 266 nM | 169 nM
AAUAAGGUCGCCGAUACCAGCGCAGGCAGAGCAAAGCUCUGCCGGGUAGUGAUGUUACCGCGCCCUUGGCAGCGGUGGCACGACC [Omei KL Theo B SS C v1] | 579 nM | 435 nM | 340 nM | 398 nM | 275 nM
AAUUUAUUAACUGAUACCAGACUAAUUUUAUUUAUUAAGUCAAGUGAUGUUUGACUUUAUGUCCCUUGGCAGCAGAAUUAAUUAA [JR_SSTheophyB_Sub019] | 126 nM | 143 nM | 124 nM | 112 nM | 128 nM
AAUACUAUCAGAAGGAGCGUGGAAUAUUCAUCUGUAUCUAAUACGAGUGAUGUUCGUAAUUCACAGGUAGGUCGCUGAUCAAUAA [whbob_Ex_Arginine_B_2th156] | 246 nM | 249 nM | 267 nM | 269 nM | 213 nM
UGGACCUGACUCGAUAAGAGUCAAUGAGAUACCAGCCACGAAAGUGGCCCUUGGCAGCUCUGCCAGUGAUGUUGGUCAAGGUCCU [#SwitchBubble 5 #StaticStem] | 1280 nM | 889 nM | 1550 nM | 584 nM | 1100 nM
